# Test results published in the supplement of paper PMC10065799, “High-throughput profiling of sequence recognition by tyrosine kinases and SH2 domains using bacterial peptide display” (eLife, 2023).
# Columns and labels:
# c-Src SH2 = assay: SH2 binding enrichment of the phosphorylated peptide, bacterial display (enrichment ratio); higher = better substrate or ligand; peptides without Tyr show the background
# Grb2 SH2 = Grb2 SH2 (UniProt P62993); assay: as above
# SHP2-C SH2 = assay: as above
# c-Abl (mouse) = assay: phosphorylation enrichment, bacterial display (enrichment ratio); higher = better substrate or ligand; peptides without Tyr show the background
# Fes = Fes (UniProt P07332); assay: as above
# c-Src = assay: as above
# Fer (mouse) = assay: as above
# AncSZ = assay: as above
# Fyn = Fyn (UniProt P06241); assay: as above
# EPHB1 = EPHB1 (UniProt P54762); assay: as above
# EPHB2 = EPHB2 (UniProt P29323); assay: as above
# FGFR3 = FGFR3 (UniProt P22607); assay: as above
# Jak2 = Jak2 (UniProt O60674); assay: as above
# FGFR1 = FGFR1 (UniProt P11362); assay: as above
# MERTK = MERTK (UniProt Q12866); assay: as above
# Hck = Hck (UniProt P08631); assay: as above
# 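Throughout, for SH2 binding enrichment of the phosphorylated peptide, bacterial display: peptide library displayed on the E. coli surface as eCPX fusions, selected cells deep-sequenced, score is each peptide's frequency after selection divided by its frequency in the input.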
# 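Throughout, for phosphorylation enrichment, bacterial display: 11-residue human phosphosite peptides and single-mutation variants displayed on the E. coli surface, counted by deep sequencing, each peptide's frequency after selection divided by its frequency in the unselected input library; frequency after pTyr selection over input frequency; kinase dosed for 20-30% of maximal phosphorylation in three min.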
# EPHB2, sequence (P29323 whole entry, looked up): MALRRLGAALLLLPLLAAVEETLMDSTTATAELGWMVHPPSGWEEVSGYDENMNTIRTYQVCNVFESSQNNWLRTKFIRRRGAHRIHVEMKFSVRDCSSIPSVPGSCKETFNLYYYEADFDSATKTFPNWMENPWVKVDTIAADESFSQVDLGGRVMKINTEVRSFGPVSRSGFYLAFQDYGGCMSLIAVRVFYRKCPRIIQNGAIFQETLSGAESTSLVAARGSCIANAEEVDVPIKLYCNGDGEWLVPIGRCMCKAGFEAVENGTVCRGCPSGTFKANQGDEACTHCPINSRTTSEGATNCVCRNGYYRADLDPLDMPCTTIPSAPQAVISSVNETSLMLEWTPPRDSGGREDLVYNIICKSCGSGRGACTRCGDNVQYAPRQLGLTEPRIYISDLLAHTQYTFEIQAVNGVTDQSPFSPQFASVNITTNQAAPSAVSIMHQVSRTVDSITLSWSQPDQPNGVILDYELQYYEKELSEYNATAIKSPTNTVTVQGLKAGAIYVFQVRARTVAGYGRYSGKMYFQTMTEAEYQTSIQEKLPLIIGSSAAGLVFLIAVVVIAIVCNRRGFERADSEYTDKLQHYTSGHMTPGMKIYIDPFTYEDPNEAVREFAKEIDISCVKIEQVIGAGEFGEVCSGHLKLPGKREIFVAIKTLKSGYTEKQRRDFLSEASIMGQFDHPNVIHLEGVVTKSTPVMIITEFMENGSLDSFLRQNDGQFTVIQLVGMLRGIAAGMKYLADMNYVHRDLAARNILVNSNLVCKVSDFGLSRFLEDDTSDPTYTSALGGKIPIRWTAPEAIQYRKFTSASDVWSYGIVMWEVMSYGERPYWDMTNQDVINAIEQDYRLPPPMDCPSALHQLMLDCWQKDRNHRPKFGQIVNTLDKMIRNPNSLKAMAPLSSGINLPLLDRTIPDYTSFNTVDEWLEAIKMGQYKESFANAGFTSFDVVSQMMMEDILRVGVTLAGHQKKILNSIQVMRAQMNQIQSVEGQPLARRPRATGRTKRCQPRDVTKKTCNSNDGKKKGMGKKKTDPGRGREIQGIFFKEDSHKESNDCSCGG
# FGFR3, sequence (P22607 whole entry, looked up): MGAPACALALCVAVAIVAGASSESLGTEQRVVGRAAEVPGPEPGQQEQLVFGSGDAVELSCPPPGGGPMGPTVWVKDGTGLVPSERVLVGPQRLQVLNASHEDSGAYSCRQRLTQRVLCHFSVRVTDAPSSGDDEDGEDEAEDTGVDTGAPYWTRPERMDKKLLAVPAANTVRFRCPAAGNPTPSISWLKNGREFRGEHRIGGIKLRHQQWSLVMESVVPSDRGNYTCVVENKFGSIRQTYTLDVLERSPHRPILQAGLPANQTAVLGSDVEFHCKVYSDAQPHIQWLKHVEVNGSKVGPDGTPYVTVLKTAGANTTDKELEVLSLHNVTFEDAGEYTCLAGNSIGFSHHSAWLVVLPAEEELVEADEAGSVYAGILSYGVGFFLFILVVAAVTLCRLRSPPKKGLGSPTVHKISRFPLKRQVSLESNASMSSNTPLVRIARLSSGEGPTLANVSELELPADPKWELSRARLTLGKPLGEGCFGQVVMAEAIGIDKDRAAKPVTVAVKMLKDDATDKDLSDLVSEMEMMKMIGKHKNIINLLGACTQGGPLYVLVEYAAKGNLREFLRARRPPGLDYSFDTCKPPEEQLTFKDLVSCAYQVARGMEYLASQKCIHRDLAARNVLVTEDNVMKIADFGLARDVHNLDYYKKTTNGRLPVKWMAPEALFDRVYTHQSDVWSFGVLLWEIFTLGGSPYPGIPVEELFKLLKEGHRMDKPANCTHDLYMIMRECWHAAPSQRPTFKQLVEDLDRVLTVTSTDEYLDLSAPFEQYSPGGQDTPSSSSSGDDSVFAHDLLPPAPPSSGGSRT
# Hck, sequence (P08631 whole entry, looked up, the tested form may be a part): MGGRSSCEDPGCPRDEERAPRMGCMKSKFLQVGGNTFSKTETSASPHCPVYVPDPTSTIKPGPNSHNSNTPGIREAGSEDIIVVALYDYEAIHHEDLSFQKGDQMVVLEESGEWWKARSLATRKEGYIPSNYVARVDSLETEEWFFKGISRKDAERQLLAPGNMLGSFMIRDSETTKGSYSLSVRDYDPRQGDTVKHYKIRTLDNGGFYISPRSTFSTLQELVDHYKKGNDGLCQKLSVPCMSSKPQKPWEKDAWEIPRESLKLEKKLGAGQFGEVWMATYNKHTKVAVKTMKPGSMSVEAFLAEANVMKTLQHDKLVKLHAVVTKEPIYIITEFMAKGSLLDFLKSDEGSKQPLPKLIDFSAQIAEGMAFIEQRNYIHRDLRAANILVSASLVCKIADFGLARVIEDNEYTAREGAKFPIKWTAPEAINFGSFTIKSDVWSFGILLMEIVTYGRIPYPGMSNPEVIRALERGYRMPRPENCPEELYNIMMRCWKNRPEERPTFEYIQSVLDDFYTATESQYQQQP
# FGFR1, sequence (P11362 whole entry, looked up): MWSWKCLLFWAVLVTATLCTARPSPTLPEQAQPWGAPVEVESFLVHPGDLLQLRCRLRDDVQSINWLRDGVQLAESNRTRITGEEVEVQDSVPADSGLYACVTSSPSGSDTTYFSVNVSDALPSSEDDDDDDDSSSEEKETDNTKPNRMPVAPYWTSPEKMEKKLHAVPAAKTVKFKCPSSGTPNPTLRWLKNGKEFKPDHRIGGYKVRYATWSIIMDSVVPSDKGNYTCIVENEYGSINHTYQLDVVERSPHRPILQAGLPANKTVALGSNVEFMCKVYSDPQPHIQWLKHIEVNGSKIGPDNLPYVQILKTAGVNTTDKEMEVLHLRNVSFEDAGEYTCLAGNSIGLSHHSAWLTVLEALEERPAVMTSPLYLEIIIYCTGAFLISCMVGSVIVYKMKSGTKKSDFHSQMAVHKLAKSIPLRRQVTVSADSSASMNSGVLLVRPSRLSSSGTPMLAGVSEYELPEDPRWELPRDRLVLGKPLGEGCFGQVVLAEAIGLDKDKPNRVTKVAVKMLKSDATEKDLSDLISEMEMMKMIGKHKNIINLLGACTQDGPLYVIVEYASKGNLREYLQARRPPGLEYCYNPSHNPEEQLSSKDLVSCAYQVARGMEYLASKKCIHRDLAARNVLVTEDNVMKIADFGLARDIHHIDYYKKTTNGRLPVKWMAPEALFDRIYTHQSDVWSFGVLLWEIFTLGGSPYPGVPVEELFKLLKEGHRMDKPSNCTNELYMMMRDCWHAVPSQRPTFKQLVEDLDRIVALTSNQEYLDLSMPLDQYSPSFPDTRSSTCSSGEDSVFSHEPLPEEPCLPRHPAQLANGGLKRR
# Jak2, sequence (O60674 whole entry, looked up): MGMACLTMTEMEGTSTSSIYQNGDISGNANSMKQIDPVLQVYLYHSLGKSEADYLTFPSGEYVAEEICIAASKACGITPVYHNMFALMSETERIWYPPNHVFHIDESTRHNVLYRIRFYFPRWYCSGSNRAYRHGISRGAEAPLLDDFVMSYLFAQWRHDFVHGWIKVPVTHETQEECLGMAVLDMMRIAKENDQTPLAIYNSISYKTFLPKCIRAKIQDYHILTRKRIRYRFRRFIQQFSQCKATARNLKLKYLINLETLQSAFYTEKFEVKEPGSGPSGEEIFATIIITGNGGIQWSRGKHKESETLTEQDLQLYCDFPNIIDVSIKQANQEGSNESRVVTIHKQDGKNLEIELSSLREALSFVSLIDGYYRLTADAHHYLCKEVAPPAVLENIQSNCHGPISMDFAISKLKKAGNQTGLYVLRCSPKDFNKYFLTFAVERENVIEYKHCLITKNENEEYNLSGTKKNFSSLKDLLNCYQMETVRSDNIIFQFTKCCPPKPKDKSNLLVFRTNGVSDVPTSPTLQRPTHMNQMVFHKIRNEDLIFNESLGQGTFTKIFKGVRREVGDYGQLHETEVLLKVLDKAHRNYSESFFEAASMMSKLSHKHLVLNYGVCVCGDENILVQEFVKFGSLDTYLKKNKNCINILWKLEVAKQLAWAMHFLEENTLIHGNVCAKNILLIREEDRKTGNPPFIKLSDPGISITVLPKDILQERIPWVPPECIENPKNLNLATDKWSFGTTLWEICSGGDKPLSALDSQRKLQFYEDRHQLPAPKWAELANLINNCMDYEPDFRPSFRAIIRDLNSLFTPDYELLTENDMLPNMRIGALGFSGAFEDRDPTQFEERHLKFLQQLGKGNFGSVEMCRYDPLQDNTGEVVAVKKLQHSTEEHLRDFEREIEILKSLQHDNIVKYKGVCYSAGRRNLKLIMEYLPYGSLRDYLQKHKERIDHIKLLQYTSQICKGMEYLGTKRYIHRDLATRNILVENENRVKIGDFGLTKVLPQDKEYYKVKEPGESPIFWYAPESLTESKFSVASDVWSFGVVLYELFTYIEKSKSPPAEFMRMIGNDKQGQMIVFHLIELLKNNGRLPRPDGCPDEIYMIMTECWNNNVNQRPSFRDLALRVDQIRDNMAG
# Fyn, sequence (P06241 whole entry, looked up): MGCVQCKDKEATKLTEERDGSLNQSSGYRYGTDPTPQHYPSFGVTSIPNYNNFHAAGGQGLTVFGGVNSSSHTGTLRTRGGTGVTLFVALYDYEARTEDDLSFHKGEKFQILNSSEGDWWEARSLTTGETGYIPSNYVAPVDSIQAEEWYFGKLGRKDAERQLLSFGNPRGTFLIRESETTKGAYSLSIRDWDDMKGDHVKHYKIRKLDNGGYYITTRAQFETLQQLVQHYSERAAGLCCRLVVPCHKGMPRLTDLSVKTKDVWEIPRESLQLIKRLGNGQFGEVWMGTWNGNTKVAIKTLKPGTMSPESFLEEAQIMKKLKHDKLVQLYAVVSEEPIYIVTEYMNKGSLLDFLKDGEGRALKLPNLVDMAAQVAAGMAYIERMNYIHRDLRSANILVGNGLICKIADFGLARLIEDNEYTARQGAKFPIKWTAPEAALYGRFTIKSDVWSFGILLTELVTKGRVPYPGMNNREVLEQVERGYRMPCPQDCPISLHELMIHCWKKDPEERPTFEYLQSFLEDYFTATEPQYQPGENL
SH2 binding enrichment (c-Src SH2),SH2 binding enrichment (Grb2 SH2),SH2 binding enrichment (SHP2-C SH2),Sequence,phosphorylation enrichment (c-Abl (mouse)),phosphorylation enrichment (Fes),phosphorylation enrichment (c-Src),phosphorylation enrichment (Fer (mouse)),phosphorylation enrichment (AncSZ),phosphorylation enrichment (Fyn),phosphorylation enrichment (EPHB1),phosphorylation enrichment (EPHB2),phosphorylation enrichment (FGFR3),phosphorylation enrichment (Jak2),phosphorylation enrichment (FGFR1),phosphorylation enrichment (MERTK),phosphorylation enrichment (Hck)
0.949,1.36,0.768,GCKNRYDKDKP [THAP1_Y14],0.752,0.928,0.591,0.745,0.655,0.535,0.506,0.474,0.804,0.691,0.557,0.482,0.596
0.602,0.919,4.31,GESSGYLRLAF [MEP1A_Y481_R476G],0.752,1.02,0.459,0.507,0.964,0.474,0.536,0.49,0.696,1.02,0.559,0.464,0.451
0.495,0.931,1.89,GGEEFYVHYVG [KAT8_Y90_R86G],0.741,1.21,0.565,0.532,1.32,0.547,0.627,0.532,0.849,1.22,0.681,0.455,0.488
0.317,0.711,0.547,GGFTCYSDGKK [PROS1_Y266_C267S_YF],0.856,1.51,0.471,0.654,1.3,0.55,0.689,0.586,0.933,1.37,0.555,0.437,0.55
0.594,0.981,0.729,GGPAGYLWRAS [PKLR_Y38_R40W],0.529,0.941,0.344,0.392,0.683,0.384,0.454,0.439,0.505,0.601,0.413,0.392,0.371
1.21,1.31,0.889,GGYTRYCDGKK [PROS1_Y266_C265R],0.528,0.585,0.338,0.357,0.649,0.365,0.347,0.386,0.436,0.759,0.37,0.4,0.446
0.655,0.89,0.645,GKTFTYHSVFF [ZNF80_Y200_R201H],1,1.25,0.999,0.655,1.31,0.596,0.602,0.547,0.904,1.3,0.618,0.46,0.592
0.438,0.97,1.14,GLDGSYLLRYS [SH2D1A_Y29_D33Y],0.542,0.979,0.441,0.415,0.685,0.485,0.436,0.455,0.57,0.665,0.478,0.434,0.512

# More lines, now with the values behind:
Sequence,SH2 binding enrichment (c-Src SH2),SH2 binding enrichment (Grb2 SH2),SH2 binding enrichment (SHP2-C SH2),phosphorylation enrichment (c-Abl (mouse)),phosphorylation enrichment (Fes),phosphorylation enrichment (c-Src),phosphorylation enrichment (Fer (mouse)),phosphorylation enrichment (AncSZ),phosphorylation enrichment (Fyn),phosphorylation enrichment (EPHB1),phosphorylation enrichment (EPHB2),phosphorylation enrichment (FGFR3),phosphorylation enrichment (Jak2),phosphorylation enrichment (FGFR1),phosphorylation enrichment (MERTK),phosphorylation enrichment (Hck)
GDEEDYYEIPG [EGFR_opt_no-pY_2015],1.84,0.87,0.67,0.968,1.64,1.32,2.82,3.2,1.19,0.919,1.26,5.79,1.34,6.05,0.811,0.963
GDNSIYVTKII [DLG1_Y349],0.36,0.878,0.661,0.518,0.782,0.768,0.521,0.748,0.622,0.472,0.693,0.537,0.689,0.523,0.524,0.863
GFPVHYTGVSN [DNMT3B_Y815_D817G],1.06,0.878,2.09,0.608,0.598,0.358,0.453,0.545,0.359,0.38,0.424,0.413,0.424,0.392,0.361,0.438
GGGFGYQKTRK [DDX18_Y643_K647R],0.536,0.976,0.461,0.719,0.613,0.492,0.422,0.597,0.401,0.629,0.302,0.46,0.57,0.422,0.514,0.393
GGMAKYTRLHN [EHHADH_Y4_E3K],1.43,1.12,1.42,0.491,0.542,0.334,0.343,0.492,0.318,0.351,0.458,0.398,0.641,0.39,0.407,0.343
GKLIFHDLRGE [KARS1_Y145_Y145H],0.473,0.825,0.824,0.504,0.802,0.399,0.389,0.696,0.369,0.475,0.405,0.575,0.632,0.37,0.383,0.389
GKVADYIPQLA [GLS_Y249],0.481,0.882,0.924,0.483,0.684,0.349,0.453,0.634,0.514,0.51,0.477,0.538,0.5,0.478,0.396,0.408
GKVFVYHGSSL [ITGA7_Y458_I457V],0.638,1.06,0.64,0.563,1.06,0.349,0.476,1.03,0.449,0.564,0.523,0.676,0.674,0.514,0.435,0.434
